Results on two molecules are retold here after patent US20070026463A1, “Compositions and methods of mutant Nogo-66 domain proteins” (Wyeth, priority 2005, published 2007).

The nature of data set [1]: Aggregation of purified fusion protein by polyacrylamide gel electrophoresis. The settings on record: protein purified from HEK293 conditioned medium by TALON metal affinity chromatography. The class given is physicochemical. Here is the method: The cDNA (SEQ ID NO:15) of the full-length fusion protein was inserted into the pSMED2 mammalian expression vector and the predicted sequence was confirmed by standard means. The vector was transfected into HEK293 cells and after 48 hours the medium in which the cells were grown was collected (referred to as conditioned medium) (see Example 2). After transfection, the conditioned medium was assayed to determine whether the fusion protein was secreted from the cells. The presence of the fusion protein in the conditioned medium was verified by Western blotting using an antibody against the alkaline phosphatase portion of the fusion. The fusion protein was purified from conditioned medium by TALON (BD/Clonetech) metal affinity chromatography (via the 6 His-tag of the fusion protein) (see Example 2).

Data set [2] concerns the target T1, human Nogo Receptor-1 protein (NgR1) (Homo sapiens, UniProt Q9BZR6).
T1 construct: expressed in transfected cells; host or cells: COS7
T1 sequence (Q9BZR6 27-447): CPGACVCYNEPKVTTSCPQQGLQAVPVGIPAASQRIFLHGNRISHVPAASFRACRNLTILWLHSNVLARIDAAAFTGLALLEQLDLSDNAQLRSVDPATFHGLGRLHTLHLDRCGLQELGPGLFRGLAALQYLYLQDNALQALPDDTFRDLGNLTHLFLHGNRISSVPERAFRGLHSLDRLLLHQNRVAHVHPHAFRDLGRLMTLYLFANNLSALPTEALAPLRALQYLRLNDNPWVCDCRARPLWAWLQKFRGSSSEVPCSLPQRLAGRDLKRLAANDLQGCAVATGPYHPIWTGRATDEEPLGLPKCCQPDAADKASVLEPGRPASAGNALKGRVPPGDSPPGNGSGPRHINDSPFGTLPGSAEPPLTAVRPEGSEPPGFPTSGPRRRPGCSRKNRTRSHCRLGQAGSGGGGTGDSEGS
Nature of the data set: Binding of purified fusion protein to NgR1-expressing COS7 cells, colorimetric alkaline phosphatase staining. As to conditions: colorimetric staining based on associated alkaline phosphatase activity. Here is the method: Purified fusion protein was assayed for binding to COS7 cells expressing the human Nogo Receptor-1 protein (NgR1). […] Thus, a non-aggregated fusion protein was created that can be used as a reagent to explore the interaction of Nogo-66 with its receptor, or receptors, as well as to identify agents interfering in that interaction (see Example 3).

The target of another data set is T2, NgR1 (Homo sapiens, UniProt Q9BZR6).
T2 construct: expressed in transfected cells; host or cells: CHO
T2 sequence (Q9BZR6 27-447): T1 sequence (Q9BZR6 27-447)
In words: Cell-based chemiluminescent SEAP binding assay on CHO cells expressing NGR1. The settings on record: CSPD substrate. How it is done:
A cell-based chemiluminescent SEAP (secreted alkaline phosphastase) assay was used to confirm binding between NgR1 and the fusion reporter protein having the amino acid sequence of SEQ ID NO:16.
On Day 1: CHO cells expressing NGR1 are seeded into each well of a Biocoat poly-D-lysine cellware 96-well plate (Becton Dickinson).
1. The medium is removed and cells are washed with 200 μl/well of HBAH (Hanks' balanced salt solution, bovine serum albumin at 0.5 mg/ml) at room temperature.
2. 100 μl of conditioned medium containing the fusion protein (i.e., conditioned medium prior to resin purification in Example 2 above) is added (or 2 μg of purified fusion protein can be added) to each well. The wells are incubated at room temperature for 90 minutes.
3. The medium is removed from the wells. The cells are washed six times with 200 μl HBAH at room temperature. For each wash, the HBAH is incubated with the cells for 5 minutes and the plates gently swirled.
4. The HBAH is removed. The cells are then fixed with 200 μl of fixative buffer (acetone-formaldehyde (60%, 3%, 20 mM HEPES, pH 7.0)) for 15 seconds at room temperature.
5. The cells are then washed three times with HBS (Hanks' balanced salt solution), 5 minutes each time at room temperature.
6. Buffers are equilibrated to room temperature. […]
16. Read the plates on a LMAXII Luminometer (Molecular Devices, Sunnyvale, Calif.). […]

Data set [3] addresses T3, human Nogo Receptor-1 protein (NgR1) (human, UniProt Q9BZR6 27-447).
T3 construct: whole, on cells; also called NgR1 receptor
T3 sequence (looked up): T1 sequence (Q9BZR6 27-447)
Nature of the data set: colorimetric alkaline phosphatase staining of COS7 cells expressing human NgR1. Here is the method: Purified fusion protein was assayed for binding to COS7 cells expressing the human Nogo Receptor-1 protein (NgR1). Binding was confirmed by colorimetric staining of NgR1 expressing cells based on associated alkaline phosphatase activity conferred by the fusion protein (see Example 3). Thus, a non-aggregated fusion protein was created that can be used as a reagent to explore the interaction of Nogo-66 with its receptor, or receptors, as well as to identify agents interfering in that interaction (see Example 3).

As for “SEQ ID NO:16: Fusion of signal peptide, human placental secreted alkaline phosphatase portion, enterokinase site, human Nogo-66 domain with Cys47 to Val, His6 tag”, the entries for the “aggregation state (bands of higher molecular weight)” value in data set [1] and in data set [1] (listed as fusion protein) were “does not aggregate” and “not aggregated”, respectively. For the same molecule, the “binding to COS7 cells expressing human NgR1” value in data set [2] is recorded as “Binding was confirmed”. Besides, in the data set with NgR1, the “binding to NgR1” value is given as “can bind to NgR1”.

B1: alkaline phosphatase mutant Nogo-66 domain fusion reporter protein (SEQ ID NO:16) (ligand)
chain: TSRSSGIIPVEEENPDFWNREAAEALGAAKKLQPAQTAAKNLIIFLGDGMGVSTVTAARILKGQKKDKLGPEIPLAMDRFPYVALSKTYNVDKHVPDSGATATAYLCGVKGNFQTIGLSAAARFNQCNTTRGNEVISVMNRAKKAGKSVGVVTTTRVQHASPAGTYAHTVNRNWYSDADVPASARQEGCQDIATQLISNMDIDVILGGGRKYMFRMGTPDPEYPDDYSQGGTRLDGKNLVQEWLAKRQGARYVWNRTELMQASLDPSVTHLMGLFEPGDMKYEIHRDSTLDPSLMEMTEAALRLLSRNPRGFFLFVEGGRIDHGHHESRAYRALTETIMFDDAIERAGQLTSEEDTLSLVTADHSHVFSFGGYPLRGSSIFGLAPGKARDRKAYTVLLYGNGPGYVLKDGARPDVTESESGSPEYRQQSAVPLDEETHAGEDVAVFARGPQAHLVHGVQEQTFIAHVMAFAACLEPYTACDLAPPAGTTDAAHPGNDDDDKLSRDKRIYKGVIQAIQKSDEGHPFRAYLESEVAISEELVQKYSNSALGHVNVTIKELRRLFLVDDLVDSLKHHHHHH
notes: Expressed in HEK293 cells and secreted; Used either purified on TALON resin or as conditioned medium; also called fusion protein; secreted alkaline phosphatase mutant Nogo-66 domain fusion reporter protein
For the molecule B1, the binding result in data set [3] was “binds”.
